# From the supplement of paper PMC9732359
# ± gives the uncertainty stated by the source.
# Assay: protein stability index of a GFP-peptide fusion (yeast GPS) (PSI 1-4); higher = more stable; sorted into four equal gates, so the index is relative within each strain
# How it was run: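 The protein stability index of a peptide was calculated by multiplying its read frequency in each gate by that gate's number and adding the products. The peptides were tiled 17-residue stretches of yeast proteins, fused downstream of GFP on a Cherry-expressing plasmid and carried in yeast as a pooled library. Mid-log cultures in leucine-free medium were sorted into four equal gates by GFP/Cherry ratio, and each gate's plasmids were PCR-amplified and Illumina-sequenced.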
Sequence,protein stability index (doa10∆),protein stability index (pdr5∆),protein stability index (san1∆),protein stability index (ubr1∆)
LARQVKLLLLNTSAIQE [YIL149C/MLP2],2.19 ± 0.085,1.75 ± 0.073,1.56 ± 0.12,1.65 ± 0.038
RGYWGTNLGQPHSLATK [RPS2],2.68 ± 0.23,3.18 ± 0.16,3.04 ± 0.1,2.85 ± 0.093
DFLRKATAFNKTRGPFH [RPL16A],2.19 ± 0.16,2.96 ± 0.2,3.04 ± 0.086,3.03 ± 0.12
DQTNHIESDSILNLLNI [ECM29],3.02 ± 0.064,3.04 ± 0.072,2.99 ± 0.077,3.03 ± 0.059
LCKSATTKMWPTNCPLR [BRR2],2.82 ± 0.13,2.68 ± 0.12,2.58 ± 0.081,2.75 ± 0.094
GEFETKIAGIEGHLAEI [SRB2],–,–,–,3.1 ± 0.13
SVWKPIAAIIGRLNTLV [IRR1],1.68 ± 0.03,1.56 ± 0.026,2.04 ± 0.058,1.63 ± 0.024
NFNPDNGFAPISEVMED [FAS1],3.3 ± 0.085,3.06 ± 0.042,3.2 ± 0.044,3.17 ± 0.033
DQITKMKDRLVEWNDQV [RPN9],3.35 ± 0.12,3.05 ± 0.099,3.43 ± 0.079,3.29 ± 0.079
VKVSAAAGKANKQFAKF [RPS11A],2.64 ± 0.081,2.88 ± 0.074,2.85 ± 0.065,2.93 ± 0.044
ADLPGSYNLEYIESKFC [YMR129W/POM152],3.16 ± 0.13,3.38 ± 0.19,3.13 ± 0.14,3.24 ± 0.093
TFFPRCIIAVSCTLLER [POP1],1.31 ± 0.024,1.36 ± 0.032,1.5 ± 0.051,1.63 ± 0.03
NSNDSVFVGSGKGTGKT [BRR2],3.36 ± 0.14,3.27 ± 0.16,3.32 ± 0.1,3.33 ± 0.11
GDFLDFQVHERLAPLIK [ARP7],3.29 ± 0.16,3.29 ± 0.13,3.42 ± 0.1,3.47 ± 0.098
GIPPPYDKKKRVVVPQA [RPL16B],1.83 ± 0.046,2.2 ± 0.059,1.99 ± 0.12,2.13 ± 0.058
EFTLFMDIAERIAVLHQ [YGL172W/NUP49],2.77 ± 0.075,2.54 ± 0.056,2.24 ± 0.068,2.9 ± 0.048
SNTDETKGENYQLVKTL [FAS2],2.94 ± 0.081,3.06 ± 0.081,2.81 ± 0.076,3.25 ± 0.084
YQKLFSQFINDHILFTK [SRB8],1.94 ± 0.044,2.06 ± 0.048,2.04 ± 0.065,2 ± 0.04
PFFSSNTSSLQSFQNPF [YIL149C/MLP2],2.93 ± 0.058,2.25 ± 0.055,2.69 ± 0.05,2.81 ± 0.033
VLAGDTRNITDYSINSR [PRE7],2.93 ± 0.09,3.29 ± 0.075,3.22 ± 0.061,3.24 ± 0.058
PTHIWNAKRSHMMKRWG [POP1],2.35 ± 0.075,2.24 ± 0.068,1.98 ± 0.12,2.26 ± 0.067
KKLLEVHDIFSKIFNES [CDC53],2.84 ± 0.072,2.71 ± 0.059,2.77 ± 0.057,2.66 ± 0.05
LVDSLATFTSIELTSYE [RPN7],1.57 ± 0.057,2.08 ± 0.061,1.68 ± 0.057,1.72 ± 0.027
DNVSKNALDKLRNNLNS [YCG1],3.23 ± 0.12,3.19 ± 0.13,2.24 ± 0.29,3.01 ± 0.17
DWVENELEALKLEAEEI [FAS2],3.29 ± 0.27,–,–,3.49 ± 0.24
QDVIKVLYQSNATHDED [SWP82],2.91 ± 0.043,2.89 ± 0.04,2.69 ± 0.04,2.881 ± 0.028

Sequence,protein stability index (doa10∆),protein stability index (pdr5∆),protein stability index (san1∆),protein stability index (ubr1∆)
KDEPVQNDILQESFINT [FAS2],2.94 ± 0.089,3.14 ± 0.12,3.02 ± 0.052,3.21 ± 0.082
SGCENITDKTIESIVNL [GRR1],2.81 ± 0.13,2.94 ± 0.099,1.54 ± 0.19,2.98 ± 0.078
VRPFGVSTLIAGFDPRD [PRE6],1.5 ± 0.15,1.7 ± 0.13,1.75 ± 0.17,1.41 ± 0.084
GAGSAFGFSSSGTAATG [YOR098C/NUP1],3.47 ± 0.2,3.41 ± 0.15,3.41 ± 0.17,3.57 ± 0.14
TKPNVLNDPSLKIQFIL [SIN4],2.03 ± 0.043,2.36 ± 0.055,2.57 ± 0.049,2.538 ± 0.025
PTNCPLRQFKTCPVEVI [BRR2],3 ± 0.093,3.17 ± 0.09,3.33 ± 0.063,2.9 ± 0.066
DLETLTMHTKTYAAEIA [RPL32],2.99 ± 0.061,2.74 ± 0.054,2.42 ± 0.053,2.63 ± 0.059
YKRSIVRNYKPLINRLK [SWI1],2.4 ± 0.13,2.7 ± 0.1,1.65 ± 0.21,1.98 ± 0.15
GKHSQEQNSSSAKPSQI [SIR4],2.97 ± 0.067,3.24 ± 0.072,3.02 ± 0.06,3.24 ± 0.052
GKIDEAADILCELQVET [RPN5],3.06 ± 0.12,3.25 ± 0.15,3.1 ± 0.061,3.46 ± 0.095
ANLLFKKEKLKQENSTL [RPC82],2.15 ± 0.077,2.24 ± 0.067,1.92 ± 0.12,1.93 ± 0.06
IIPSRMGEAQTGANFDD [REC8],1.93 ± 0.089,2.16 ± 0.12,3.04 ± 0.25,2.74 ± 0.1
PSIPLVIIRRLKTRDWI [POP1],2.72 ± 0.1,1.69 ± 0.073,2.86 ± 0.12,2.53 ± 0.081
FIKLQKIDIIELQKSLS [FAS1],2.15 ± 0.045,2 ± 0.044,2.04 ± 0.059,2.28 ± 0.047
QVATKYASLKLPNQIPG [YMR129W/POM152],1.69 ± 0.038,1.68 ± 0.041,1.67 ± 0.052,1.84 ± 0.029
AQQQKRGGFGGRNRGRP [RPS2],3.32 ± 0.17,3.26 ± 0.13,3.31 ± 0.069,3.51 ± 0.15
TIGPYRARKDRMRVSVL [SSN3],3.19 ± 0.15,2.99 ± 0.085,3.07 ± 0.083,3.12 ± 0.052
LANFVAKGFYHTPMVNF [SRB8],2.57 ± 0.059,2.27 ± 0.044,1.92 ± 0.082,2.32 ± 0.048
RNVNWIERLTKRQFNNS [ITC1],3.05 ± 0.12,3.36 ± 0.15,3.05 ± 0.13,3.41 ± 0.12
SRGINKGHKFNNTKAGR [RPL15A],3.28 ± 0.29,3 ± 0.2,–,3.4 ± 0.17
RNPDIYTREFVEAIRRS [NUT2],2.42 ± 0.068,2.15 ± 0.055,2.84 ± 0.15,3.02 ± 0.054
KQQGVGLPTDAYVAIEQ [RPN8],2.78 ± 0.083,2.7 ± 0.15,2.89 ± 0.21,3.19 ± 0.1
QIELSCNERVPLSVATE [SRP72],2.11 ± 0.04,2.21 ± 0.053,2.1 ± 0.087,2.12 ± 0.04
SILEHSGIRLIEPELFN [FAS2],2.67 ± 0.068,2.99 ± 0.061,2.76 ± 0.058,2.86 ± 0.039
ETNAKPFSFSSATSTTE [YLR335W/NUP2],2.18 ± 0.056,2.4 ± 0.053,2.35 ± 0.053,2.26 ± 0.035
RMPMDFKGVIVKIVDKD [PRE1],2.25 ± 0.17,3.11 ± 0.18,3.19 ± 0.22,2.37 ± 0.056

Sequence,protein stability index (doa10∆),protein stability index (pdr5∆),protein stability index (san1∆),protein stability index (ubr1∆)
LLNILITYGIIKVPTYI [SRB8],1.57 ± 0.083,1.52 ± 0.09,–,1.03 ± 0.047
DEIHIPAPSKPVIDYEL [BRR2],3.19 ± 0.073,3.08 ± 0.077,2.88 ± 0.059,2.78 ± 0.061
IKYEFNGIPLKSKERSS [YMR129W/POM152],2.39 ± 0.11,1.24 ± 0.057,1.52 ± 0.26,2.98 ± 0.16
TIFSPEGRLYQVEYALE [PRE9],3.13 ± 0.079,3.32 ± 0.088,3.14 ± 0.11,3.12 ± 0.051
SPMLSISNLTQEQVQDY [FAS1],2.97 ± 0.058,2.97 ± 0.047,2.98 ± 0.05,3.09 ± 0.044
DIRKFLDGIYVSHKGFI [RPL9A],1.39 ± 0.1,2.08 ± 0.077,1.77 ± 0.16,3.23 ± 0.1
KERSDGKRHIFDVNTLC [CDC53],1.27 ± 0.052,1.76 ± 0.062,1.26 ± 0.13,1.92 ± 0.085
VHCRISCQIAQPYEDRP [RRP45],1.63 ± 0.064,2.12 ± 0.12,1.52 ± 0.22,1.92 ± 0.077
MTIDDSNRLLMDVDQFD [YJR042W/NUP85],–,3.63 ± 0.21,3.25 ± 0.098,3.51 ± 0.2
IQLIKILNSHFDALRSL [YJL041W/NSP1],2.54 ± 0.047,2.4 ± 0.039,2.95 ± 0.033,2.58 ± 0.035
TDGADENVQIGEDFMEV [SRB4],2.66 ± 0.12,3.35 ± 0.17,–,3.1 ± 0.19
APVETKKKRFEIKKWTA [HRT1],3.15 ± 0.094,3.48 ± 0.13,2.93 ± 0.12,3.27 ± 0.09
LDEIFSGCDSTKPSLRK [ECM29],2.57 ± 0.078,2.55 ± 0.06,2.65 ± 0.065,2.65 ± 0.038
KVEIPLPNEAGRLEIFK [RPT4],–,3.09 ± 0.17,2.52 ± 0.18,2.74 ± 0.21
VSNSGAQDEEIHKQIVI [UBP6],3.17 ± 0.16,3.5 ± 0.14,3.08 ± 0.14,3.16 ± 0.11
KFFHNGMIYNKLFVSKE [FAS2],2.87 ± 0.089,2.54 ± 0.086,2.38 ± 0.12,2.58 ± 0.077
LYGTAIGARSQGAKTYL [PRE5],2.88 ± 0.13,3.21 ± 0.079,3.04 ± 0.078,3.13 ± 0.079
GKEVEVLMETKNTQSPQ [SNU114],3.19 ± 0.22,3.6 ± 0.095,–,3.44 ± 0.11
LPPEKIYSPLHSFIKML [SIR2],1.65 ± 0.034,1.88 ± 0.032,1.72 ± 0.05,1.71 ± 0.032
EVRGQVPVIESAGFETD [SNU114],1.37 ± 0.052,1.59 ± 0.06,1.49 ± 0.15,1.86 ± 0.057
LGWDLDAIIPFAAIPEQ [FAS2],2.6 ± 0.28,3.14 ± 0.15,–,3.15 ± 0.16
QFELLSRRWRQRKNIQS [BRR2],1.44 ± 0.08,1.92 ± 0.056,1.55 ± 0.088,1.65 ± 0.044
SYYSREQDALFITRLAQ [RPN1],1.71 ± 0.044,1.85 ± 0.045,1.65 ± 0.078,1.8 ± 0.042
PPSLKIIDGPKALILAP [PRP28],1.62 ± 0.055,1.77 ± 0.07,1.51 ± 0.12,1.63 ± 0.039
ERVPKTQLDKLRPRKDS [SMB1],3.1 ± 0.051,3.07 ± 0.062,3.09 ± 0.032,3.17 ± 0.045
VDQNPLTMHKIIQLILW [SRB8],1.47 ± 0.085,1.6 ± 0.086,1.23 ± 0.17,1.36 ± 0.081
